30 sequences from the nanobody polyreactivity screen of Harvey et al. (2022) can be followed below.

A short description of the data set: yeast display, Sf9 membrane polyspecificity reagent, FACS + sequencing; frameworks hold sequencing errors. Put shortly:
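Galactose-induced (36–48 hours) yeast carrying a synthetic nanobody display library were exposed to 10% biotinylated, detergent-solubilized Sf9 membrane reagent at 4 °C for 1 hour. FACS followed streptavidin microbead enrichment, using low and high (top ~1%) gates for expression (anti-HA) and reagent binding (streptavidin). Colony PCR, MiSeq 2 × 250 sequencing and CDR-length filtering followed. Labels for polyreactivity reflect the gate of origin.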
Regarding “QVQLVESRGGLVQAGGSLRLSSAASGFIFDDNAMGWYRQAPGKERQLVAAITSGGGSTYYADSVKGRFTISRDNAKNTVYLQMNSLKPDDTAVYSCNAKLFIRWFTYDYWGQGTQVTVSS”, the “polyreactivity (PSR sort gate)” value is “low polyreactivity”.
For “HVQLQESGGGLVQAGGSLRLSCAASGSIFQATYMGWYRQAPGKEREFVASITNGSITNYADSVKGRFTIGRDNEKDTLYLQMNSLKPEDSAVYYCAVDRQYIPAFHYWGQGTQVTVSS”, the “polyreactivity (PSR sort gate)” value is “low polyreactivity”.
For “QVQLVESGGGLVQAGGSLRLSCAPSGFIFVKYVMGWYRQAPGKERELVATITGSTGGTYYADSVKGRFTISRDNAKNTVYLQMNSLKPEDTAVYYCNKDYYYNPGNVASGYDYWGQGTQVTVSS”, the “polyreactivity (PSR sort gate)” value was “low polyreactivity”.
As to “QVQLVESGGGFVQAGGSLRLSCAASGRTFQFYAMGWYRQAPGKERELVAAITYSGDSTYYADSVKGRFTISRDNAKNTVYLQMNSLKPEDTAVYYCAAGVWFYWYEYDYWGQGTQVTVSS”, the “polyreactivity (PSR sort gate)” value was “high polyreactivity”.
Take “QVQLVESGGGLVQAGGSLRLTCAASGFIFNRYAMGWYRQAPGKERELDADLTGGSTYYAVSVKGRFTISRDNAKKSVYLQLNSVTPEDTAVDYCAADVLPISTLLFRGPGFDSWGQGTQVTFSS”: the “polyreactivity (PSR sort gate)” value was “low polyreactivity”.
As for “QVKLVESGGGLVQAGGSLRLSCAASGSSFTNYAMGWYRQEPRKERELVAAITSVGSTYYADSVKGRFTISRDNAKNTVYLQMNSLKPEDTAVYYCNVVYRDQYNYWGQGTQVTVSS”, the “polyreactivity (PSR sort gate)” value is recorded as “low polyreactivity”.
In the case of “QVQLVESGGGLVQAGGSLRLSCAASGRTFSTYAMGWYRQAPGKERELVAGISRGGGSTYYADSVKGRFTISRDNAKNTVYLQMNSLKPEDTAVYYCAAKRPQYYVQYGYWGQGTQVTVSS”, the “polyreactivity (PSR sort gate)” value is given as “high polyreactivity”.
Turning to “QVQRVESGGGLVQAGGSLPLSCAATGRTVRQNAMGWYGQAPGKVSELVAAISSSGTNTHYAVSVKGRFTISRDNANNTVYIVMNRLKPEDTAVYYCAADGWGARRKQYHDNGFWGTGTQVTVSS”, the “polyreactivity (PSR sort gate)” value is reported as “high polyreactivity”.
In the case of “QDQLVESGGGLVQAGGSLRLSCAASGSIFRYVMGWYRQAPGNERELVAAISIRGGSTYYADSVKGRFTISRDNAKNTVFFQMHSLKPEDTAVYYCAADRYRLGVKYDYWGQGTQVTVSS”, the “polyreactivity (PSR sort gate)” value is reported as “high polyreactivity”.
Turning to “QVQLVESGGGLVQAGGSLRLICAASGSIFGGYAMGWYIQAPGKERELVARITNGGSTYYADSVKGRFTISRDNAKNTVYLQMNSLKPEDTAVYYCNADWYAYPYGYWGQGTQVTVST”, the “polyreactivity (PSR sort gate)” value is reported as “low polyreactivity”.
On to “QVQLVESGGGLVQAGGSLRLSCAASGSIFTYYVMGWYRQAPGKERELVAVISRRGGRTYYADSVKGRFTISRDNAKNTVYLQMNSLKPEDTAVYYCATTYKTRYGGRYRYYYWGQGTQVTVSS”, for which the “polyreactivity (PSR sort gate)” value is reported as “high polyreactivity”.
Regarding “QVQLVESGGGLVQAGGSLRLSCAASGRISVVNAMGWYRQAPGKERELVATINRGGSTYADSVKGRFTISRDNAKNTVYLQMNSLKPEDTAVYYCAARTFRISRMDYWGQGTQVTVSS”, the “polyreactivity (PSR sort gate)” value is on record as “high polyreactivity”.
In the case of “QVQLVESGGGLVQAGGSLRLSCEASGRTFDTYAMGCYRQAPGKERELVAAITTSGGTTYYADSVKGRFTISRDNAKNTVYLQMNSLKPEDTAVYYCAADPWIEYTYGSKAYYYWGQGTQVTVSS”, the “polyreactivity (PSR sort gate)” value is “low polyreactivity”.
Take “QVQLVESGGGLVQAGGSLRLSCAASGRIFARYAMGWYRQAPGKERELVAAITVSGDNTYYADSVKGRFTISRDNAKNTVYLQMNSLKPEDTAVYYCNAYFLVHYRRLRPYDYWGQGTQVTVSS”: the “polyreactivity (PSR sort gate)” value was “low polyreactivity”.
Consider “QVQLVESGGGLVQAGGSLRLSCAASGIIFKQYAMGWYRQAPGKERELVAAITGSGGRTTYADSVKGRFTISRDNAMNTVYLQMNSLKPEDTAVYFCAAVGLSGWRDGYWGQGTQVTVSS”, for which the “polyreactivity (PSR sort gate)” value is given as “high polyreactivity”.
As for “QVQLVESGGGLVQAGGSLRLSWAASGITFATKAMGWYRQAPGKERELVAGITSGGSTYYADSVKGRFTISRDNAKNTVYLQMNSLQPEDTAVYYCANRYHYWYGTGYDYWGQGTQVTVSS”, the “polyreactivity (PSR sort gate)” value is on record as “low polyreactivity”.
On to “QVQLVESGGRLVQAGGSLRLSCAASGRISWSYAMGWYRQAPGKERELVAAITSGGTTNYADSVKGRFTISRDNAKNTVYLQMNSLKPEDTAVYYCARDSYQLGLIRDPLEYDYWGQGTQVTVSS”, for which the “polyreactivity (PSR sort gate)” value is recorded as “low polyreactivity”.
“QVQLVESGGGLVQAGGSLRLSCAASGRTFYGYAMGWYIQAPGKERELVASISYSGGNTYYADSVKGRFTISRDNAKNTVYLQMNSLKPEDTAVYYCAAKARRPYSYHPYDYWGLGTQVTVSS”: the “polyreactivity (PSR sort gate)” value was “high polyreactivity”.
Turning to “QDQLVESGGGLVHAGGSHRFSCAASGFTFGAYAMGWSRQAPGKERELVATITNSGRTYYADSVKGRFTISRDNAKNTVYLQMNSLKPEDTAVYYCAAQPDGQAMEHWGQGTQVTVSS”, the “polyreactivity (PSR sort gate)” value was “low polyreactivity”.
As to “QVQLVESGAALVQAGGSLRLSCAASASTYVSYAMGWSRQAPGKEREFVAAITWRGDSTYYADSVKGRFTISRDNAKNTVYFQMNSLKPEDTAVDYCAADGRSWRYYSPYYYWGQGTQVTVSS”, the “polyreactivity (PSR sort gate)” value is reported as “low polyreactivity”.
Turning to “QVKLVESGGGLVQAGGSLRLSCAASGFTFNRYAMGWYRQAPGKERELVAAISWSGGSTYYADSVKGRFTISRDNAKNTVYLQMNSLKPEDTAVYYCAAATAYYRYRGGYDYWGQGTQVTVSS”, the “polyreactivity (PSR sort gate)” value is on record as “high polyreactivity”.
In the case of “QVQLVETGGGLVQAGGSLRLSCAASGRTFKGYAMGWYRQSPGKERELVAGISRGAGRTYYADSVKGRFTISRDNAKNTVYLQMNSLKPEDTEVYYCAAVPSYHSTSPFYYWGQGTQVTVSS”, the “polyreactivity (PSR sort gate)” value is “high polyreactivity”.
“QVQLVESGGGLVQAGGSLRLSSAASGSISPQNVMGWYRQEPGKERELVAAITGGGSTNYADSVKGRFTISRDNAKNTVSLQMNSLKPEDTAVYYCNDDYFQDRLDYWGQGTQVTVSS”: the “polyreactivity (PSR sort gate)” value is on record as “low polyreactivity”.
As to “QVQLVESGGGLVQAGGSLRLSCAASGRIFSAYAMGWYRQAPGKERELVAVISRRGGRTYYADSVKGRFTISRDNAKNTVYLQMNSLKPEDTAVYYCAALGRRTRLYYWGQGTQVTVSS”, the “polyreactivity (PSR sort gate)” value is “high polyreactivity”.
On to “QVQLVESGGGLVQAGGSLRLSCAASGFISGSYAMGWYRQAPGKDREFVASISLSDGSTTYADSVKGRFTISRDTAKNPVYLQMNSLKPEDTAVYYCAVQFYYPFTGGTIYEYWGQGTQVTVAS”, for which the “polyreactivity (PSR sort gate)” value was “low polyreactivity”.
The value for “QVQLVESGGGLVQAGGSLRLTCAASGSIFEGNAMGWYRQAPGKESELVASISGDGSTNYADSVKGRFTISRDNAKNSVYLQMNSLKPEDTAVYYCNADTISEPGFHMDYWGQGNQVTVSS” was “low polyreactivity”; that for “QVQLQESGGGLVQAGGSLRLTCAASGSIYDDTYMGCYRQAPGKERELVATIDSGSTTNYADSVKGRITIRRDNAKNTVYLQMNSLKPEDTAVYFCGAADSHIDYFDYWGQGTQVTVSS” was “low polyreactivity”.
“QVQLVESGGGLVQAGGSLRLSCAASGIIFAANAMAWYRQAPGKERELVAAISKNGGITYYADSVKGRFTISRDNAKNTVYLQMNSLIPEDTAVYDCSARWRQTRRYYYWGQGTKVTVSS”: the “polyreactivity (PSR sort gate)” value is on record as “high polyreactivity”.
Regarding “QVQLVESGGGLVQAGGSLSLSCAASGSIFNPYGKGWYRQAPGKERELVAAITSSGGDTYYADSVKGRFTISRDNAKNTVYLQMNSLKPEDTAVYYCAATGLPGYYAYDYWGHGTQVTVSS”, the “polyreactivity (PSR sort gate)” value is “low polyreactivity”.
The value for “QDQLVESGGGLVQAGGSLRLSCAASGFTISSYARGWYRQAPGKERELVAAISTRGGSTYYADSVKGRFTISRDNSKNTVYLQMNSLKPEDTAVSYCATGGRGGRRYEYWGQGTQVTVSS” was “low polyreactivity”.
